Test results published in patent US7880053B2, “Methods of using transformed plants expressing plant-derived acyl-coenzyme-A-binding proteins in phytoremediation” (priority 2007, dated 2011).
Entries after “also recorded” stand apart in the source; their conditions may differ.

Experiments:
[1] = Heavy-metal-binding assay using metal-chelate affinity chromatography, Pb(II)-equilibrated matrix; conditions: for binding of in vitro translated ACBP to Pb(II): [35S]methionine-labeled protein, SDS-PAGE autoradiography, FIG. 2B
Excerpt: (§1) The coding regions of ACBP1, ACBP2 and ACBP6 were generated by RT-PCR for construction of pGEM-T EASY (Promega) derivatives for in vitro transcription/translation. Primers used in RT-PCR were as follows: ACBP1 (ML190 (SEQ ID NO:20) and ML917 (SEQ ID NO:17), ACBP2 (ML902 (SEQ ID NO:21) and ML903 (SEQ ID NO:22)), and ACBP6 (ML812 (SEQ ID NO:23) and ML751 (SEQ ID NO:2)). The PCR products were subsequently cloned into pGEM-T EASY vector (Promega) for in vitro transcription/translation using the TNT® T7/SP6 Coupled Wheat Germ Extract System (Promega) following the manufacturer's instruction. Pb(II)-, Cd(II)-, and Cu(II)-equilibrated matrices for metal-binding assays were prepared by stripping Ni-NTA agarose (Qiagen) of nickel and re-equilibrating with 0.1 M Pb(NO3)2 (Aldrich), CdCl2 (Aldrich), or CuCl2 (Aldrich). Twenty μl of Pb(II)-, Cd(II)-, or Cu(II)-equilibrated matrix, 545 μl of 50 mM KH2PO4, 300 mM NaCl, pH 7.4, and [^35S]methionine-labeled protein were added to a microfuge tube (Dykema et al., Plant Mol. Biol. 41: 139-150, 1999) and rotated on a wheel at 4° C. for 1 h. Subsequently, the matrix was washed 3 times with 1.0 ml of 50 mM KH2PO4, 300 mM NaCl, pH 7.5. The binding protein was eluted with 200 μl of 50 mM KH2PO4, 300 mM NaCl, 500 mM imidazole, pH 4.5, followed by extraction with 200 μl of 2% SDS, 50 mM DTT, heating at 85° C. for 3 min and analysis by SDS-PAGE followed by autoradiography.

[2] = Heavy-metal-binding assay using metal-chelate affinity chromatography, Cd(II)-equilibrated matrix; conditions: FIG. 2C
Excerpt: as §1, with “The binding protein was eluted with 200 μl of 50 mM KH2PO4, 300 mM NaCl, 500 mM imidazole, pH 4.5, followed by extraction with 200 μl of 2% SDS, 50 mM DTT, heating at 85° C. for 3 min and analysis by SDS-PAGE followed by autoradiography.” left out

[3] = Heavy-metal-binding assay using metal-chelate affinity chromatography, Cu(II)-equilibrated matrix; conditions: FIG. 2C
Excerpt: as §1, with “The binding protein was eluted with 200 μl of 50 mM KH2PO4, 300 mM NaCl, 500 mM imidazole, pH 4.5, followed by extraction with 200 μl of 2% SDS, 50 mM DTT, heating at 85° C. for 3 min and analysis by SDS-PAGE followed by autoradiography.” left out

ACBP1 to ACBP5 mRNA = test: RT-PCR of ACBP transcripts in root after Pb(II) treatment; type: in vivo, Arabidopsis thaliana; conditions: 1 mM Pb(NO3)2, 24 h, 3-week-old Col-0 seedlings, FIG. 1
Protocol: (§2) Arabidopsis thaliana wild-type Columbia (ecotype Col-0), ACBP1- and ACBP3-overexpressing transgenic plants (ecotype Col-0) were grown under 8 h dark at 21° C. and 16 h light at 23° C. cycles. For Pb(II)-inducible gene expression analysis, Arabidopsis seedlings were grown for 3 weeks in continuous light, treated with 1 mM Pb(NO3)2 or water (as control), and shoot and root samples were collected at 24 h post-treatment. For Pb(II) sensitivity tests, Arabidopsis seedlings were surface-sterilized and grown on Murashige and Skoog (Physiol. Plant. 15: 473-497, 1962) medium containing 2% sucrose with or without 0.75 mM Pb(NO3)2 (Sigma-Aldrich, St. Louis) for 2 to 3 weeks.
(§3) To determine if the regulation of Arabidopsis ACBP mRNAs responds to Pb(II) stress, we performed reverse transcription-PCR(RT-PCR) using root tissue RNA following treatment with 1 mM Pb(NO3)2. For RT-PCR, total RNA was extracted with TRIzol (Invitrogen) reagent, according to the manufacturer's protocol, from roots of 3-week-old wild-type Arabidopsis (Col-0) seedlings in the presence or absence (water as control) of 1 mM Pb(NO3)2. RT-PCR analysis was performed as according to the manufacturer (Invitrogen Cat No. 12371-019). Specific primers were designed based on mRNA sequences. […]

ACBP6 transcript = test: as above; type: in vivo, Arabidopsis thaliana; conditions: 1 mM Pb(NO3)2, 24 h, 3-week-old Col-0 seedlings, FIG. 1
Protocol: as §2, §3

[4] = Lead-binding assay, fluorescence of dansylated (His)6-ACBP; conditions: 1 to 9 μM Pb(II), FIG. 2A
Protocol: Lead-binding assays and fluorescence measurements were carried out according to Funaba and Mathews (Mol. Endocrinol. 14:1583-1591, 2000) with minor modifications. Briefly, 3.2 μM of each purified (His)6-ACBP protein which was equilibrated in 20 mM phosphate buffer (pH 7.2) with 200 mM NaCl, were labeled with 8 μl of 200 mM dansyl aziridine (Molecular Probes, Cat. No. D151) and reacted for 2 h in a 1.5 ml Eppendorf tube at room temperature. The dansylated (His)6-ACBP proteins were then distributed to 8 wells of a 96-well microtiter plate (Nunc Cat. No. 236105). Various concentrations (0, 1.0, 2.0, 3.0, 4.0, 5.0, 7.0 and 9.0 μM) of Pb(NO3)2 (Aldrich, Cat. No. 203580) solutions were added and the reactions were incubated at room temperature for 1 h.
Fluorescence measurements were performed using a BIO-TEK FL600 Fluorescence Plate Reader (BIO-TEK Instrument, INC, USA) with excitation wavelength set at 360/40 nm and emission wavelength set at 530/25 nm. Prior to binding with lead, the dansyl aziridine coupled (His)6-ACBP recombinant proteins are sensitive to the conformational changes. After binding to Pb(II) molecules, the dansylated (His)6-ACBP recombinant proteins would change their conformations and the dye will show an increase in fluorescence excitation. […] Each experiment was repeated three times to ascertain results.

[5] = EDTA at 50 mM final concentration
[6] = [35S]methionine-labeled protein

Molecule: O=C(O)CN(CCN(CC(=O)O)CC(=O)O)CC(=O)O [EDTA, ethylenediaminetetraacetic acid, reference compound]
- effect on binding of ACBP2 to Pb(II) ([1]; EDTA at 50 mM final concentration, FIG. 2C): inhibited
- effect on binding of ACBP2 to Cd(II) [2, 5]: inhibited
- effect on binding of ACBP2 to Cu(II) [3, 5]: inhibited

Molecule: O=[N+]([O-])[O-].O=[N+]([O-])[O-].[Pb+2] [Pb(II)]
- mRNA expressions of ACBP1 to ACBP5 in roots (ACBP1 to ACBP5 mRNA): increase
- transcript of ACBP6 in roots (ACBP6 transcript): little change

B1: (His)6-ACBP6: recombinant (His)6-ACBP6, 18.9 kDa inclusive of His-tag, from vector pAT335 in E. coli (protein, UniProt P57752 1-92, looked up)
Acyl-CoA-binding …: MGLKEEFEEHAEKVNTLTELPSNEDLLILYGLYKQAKFGPVDTSRPGMFSMKERAKWDAWKAVEGKSSEEAMNDYITKVKQLLEVAASKAST
modifications: His6 tag
notes: recombinant (His)6-ACBP6, 18.9 kDa inclusive of His-tag, from vector pAT335 in E. coli
- relative fluorescence intensity in the presence of Pb(II), indicative of binding to Pb(II) [4]: bind Pb(II) less well than ACBP1

B2: ACBP6: in vitro translated [35S]methionine-labeled Arabidopsis ACBP6 (SEQ ID NO: 26), 10-kDa ACBP (protein)
chain: B1 Acyl-CoA-binding …
modifications: Arabidopsis
- binding of in vitro translated ACBP to Pb(II) [1]: bind Pb(II) less well than ACBP1

B3: ACBP1: in vitro translated [35S]methionine-labeled Arabidopsis ACBP1 (SEQ ID NO: 27), wheat germ extract system (protein)
chain: MADWYQLAQSIIFGLIFAYLLAKLISILLAFKDENLSLTRNHTTQSEYENLRKVETLIGISGETDSLIAEQGSLRGDEDESDDDDWEGVESTELDEAFSAATAFVAAAASDRLSQKVSNELQLQLYGLYKIATEGPCTAPQPSALKMTARAKWQAWQKLGAMPPEEAMEKYIDLVTQLYPAWVEGGSKRRNRSGEAAGPMGPVFSSLVYEEESDNELKIDAIHAFAREGEVENLLKCIENGIPVNARDSEGRTPLHWAIDRGHLNVAEALVDKNADVNAKDNEGQTSLHYAVVCEREALAEFLVKQKADTTIKDEDGNSPLDLCESEWSWMREKKDSN
modifications: Arabidopsis
- binding of in vitro translated ACBP to Pb(II) [1]: bind Pb(II) better than ACBP6; also recorded: slightly better binding than ACBP2

B4: (His)6-ACBP4: recombinant (His)6-ACBP4 from pRSET B-derived vector pAT184 in E. coli (protein, UniProt Q9MA55 1-668, looked up)
Acyl-CoA-binding …: MAMPRATSGPAYPERFYAAASYVGLDGSDSSAKNVISKFPDDTALLLYALYQQATVGPCNTPKPSAWRPVEQSKWKSWQGLGTMPSIEAMRLFVKILEEDDPGWYSRASNDIPDPVVDVQINRAKDEPVVENGSTFSETKTISTENGRLAETQDKDVVSEDSNTVSVYNQWTAPQTSGQRPKARYEHGAAVIQDKMYIYGGNHNGRYLGDLHVLDLKSWTWSRVETKVATESQETSTPTLLAPCAGHSLIAWDNKLLSIGGHTKDPSESMQVKVFDPHTITWSMLKTYGKPPVSRGGQSVTMVGKTLVIFGGQDAKRSLLNDLHILDLDTMTWDEIDAVGVSPSPRSDHAAAVHAERFLLIFGGGSHATCFDDLHVLDLQTMEWSRPAQQGDAPTPRAGHAGVTIGENWFIVGGGDNKSGASESVVLNMSTLAWSVVASVQGRVPLASEGLSLVVSSYNGEDVLVAFGGYNGRYNNEINLLKPSHKSTLQTKTLEAPLPGSLSAVNNATTRDIESEVEVSQEGRVREIVMDNVNPGSKVEGNSERIIATIKSEKEELEASLNKERMQTLQLRQELGEAELRNTDLYKELQSVRGQLAAEQSRCFKLEVDVAELRQKLQTLETLQKELELLQRQKAASEQAAMNAKRQGSGGVWGWLAGSPQEKDDDSP
modifications: His6 tag
notes: recombinant (His)6-ACBP4 from pRSET B-derived vector pAT184 in E. coli
- relative fluorescence intensity in the presence of Pb(II), indicative of binding to Pb(II) [4]: much higher than the other recombinant ACBPs

B5: ACBP2 (protein)
chain: MGDWAQLAQSVILGLIFSYLLAKLISIVVTFKEDNLSLTRHPEESQLEIKPEGVDSRRLDSSCGGFGGEADSLVAEQGSSRSDSVAGDDSEEDDDWEGVESTELDEAFSAATLFVTTAAADRLSQKVPSDVQQQLYGLYKIATEGPCTAPQPSALKMTARAKWQAWQKLGAMPPEEAMEKYIEIVTQLYPTWLDGGVKAGSRGGDDAASNSRGTMGPVFSSLVYDEESENELKIDAIHGFAREGEVENLLKSIESGIPVNARDSEGRTPLHWAIDRGHLNIAKVLVDKNADVNAKDNEGQTPLHYAVVCDREAIAEFLVKQNANTAAKDEDGNSPLDLCESDWPWIRDSAKQAD
modifications: Arabidopsis
- binding of in vitro translated ACBP to Pb(II) [1]: bind Pb(II) better than ACBP6
- binding of in vitro translated ACBP to Cd(II) [2, 6]: binds Cd(II) and Cu(II) better than ACBP6
- binding of in vitro translated ACBP to Cu(II) [3, 6]: binds Cd(II) and Cu(II) better than ACBP6
